{
  "source": "the supplement of paper PMC6379048",
  "experiment_in_all_cases": "Kd (EC50 corrected by depletion factor)",
  "key": {"[1]": {"target": "T1, CSTF2T (UniProt Q9H0L4)", "T1 sequence": "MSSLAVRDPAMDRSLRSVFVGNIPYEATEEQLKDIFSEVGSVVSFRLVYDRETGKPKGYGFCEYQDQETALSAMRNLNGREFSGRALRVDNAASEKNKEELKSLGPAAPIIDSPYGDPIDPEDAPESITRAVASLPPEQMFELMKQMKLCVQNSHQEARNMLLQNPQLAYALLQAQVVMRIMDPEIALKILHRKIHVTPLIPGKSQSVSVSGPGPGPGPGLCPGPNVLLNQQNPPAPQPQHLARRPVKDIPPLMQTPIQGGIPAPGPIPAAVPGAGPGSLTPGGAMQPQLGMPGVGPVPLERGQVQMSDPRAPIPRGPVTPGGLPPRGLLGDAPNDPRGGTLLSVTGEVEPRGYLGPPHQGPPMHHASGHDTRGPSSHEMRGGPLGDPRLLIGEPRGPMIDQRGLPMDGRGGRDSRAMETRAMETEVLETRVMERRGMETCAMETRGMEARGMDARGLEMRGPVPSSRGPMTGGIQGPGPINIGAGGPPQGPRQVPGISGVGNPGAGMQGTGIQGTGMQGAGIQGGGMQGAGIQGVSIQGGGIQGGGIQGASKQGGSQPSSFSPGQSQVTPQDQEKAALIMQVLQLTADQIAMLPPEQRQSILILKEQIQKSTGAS", "summary_of_the_method": "(§1)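 Over three biological replicates and two independent experiments, proteins captured on NHS-Sepharose beads carrying 5′-amino-C6 RNA oligos were quantified by label-free LC-MS/MS and normalised to the control. Capture lasted 30 min at 4°C and followed a 1 h pre-incubation at 4°C of HEK293-FT lysate (2.5 mg protein/well) with the same oligos in free form (0 nM to 30 μM). EC50 was taken from a four-parameter log-logistic fit, and Kd was EC50 corrected by a protein-dependent depletion factor.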"}, "[2]": {"target": "T2, LSM8 (UniProt O95777)", "T2 sequence": "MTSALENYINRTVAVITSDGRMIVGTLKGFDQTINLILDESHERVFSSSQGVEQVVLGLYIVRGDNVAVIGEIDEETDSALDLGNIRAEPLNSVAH", "summary_of_the_method": "as §1"}, "[3]": {"target": "MRPS18A (UniProt Q9NVS2)", "summary_of_the_method": "as §1"}, "[4]": {"target": "MRPL39 (UniProt Q9NYK5)", "summary_of_the_method": "as §1"}, "[5]": {"target": "RPS13 (UniProt P62277)", "summary_of_the_method": "as §1"}, "[6]": {"target": "MRPL49 (UniProt Q13405)", "summary_of_the_method": "as §1"}, "[7]": {"target": "T3, SRSF4 (UniProt Q08170)", "T3 sequence": "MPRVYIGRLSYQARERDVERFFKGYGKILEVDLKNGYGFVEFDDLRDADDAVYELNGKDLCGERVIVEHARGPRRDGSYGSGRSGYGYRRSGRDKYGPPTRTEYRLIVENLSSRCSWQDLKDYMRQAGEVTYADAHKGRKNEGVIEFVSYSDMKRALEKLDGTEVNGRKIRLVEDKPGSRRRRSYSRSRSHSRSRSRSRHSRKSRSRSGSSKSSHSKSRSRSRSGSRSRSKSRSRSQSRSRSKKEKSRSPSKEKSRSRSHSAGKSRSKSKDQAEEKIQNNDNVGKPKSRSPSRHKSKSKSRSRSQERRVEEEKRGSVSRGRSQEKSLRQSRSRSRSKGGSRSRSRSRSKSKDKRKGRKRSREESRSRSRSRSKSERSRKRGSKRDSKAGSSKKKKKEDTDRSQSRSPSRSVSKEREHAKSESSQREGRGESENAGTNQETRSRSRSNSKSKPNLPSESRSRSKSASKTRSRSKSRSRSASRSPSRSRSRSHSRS", "summary_of_the_method": "as §1"}, "[8]": {"target": "CPSF4 (UniProt O95639)", "sequence (O95639 whole entry)": "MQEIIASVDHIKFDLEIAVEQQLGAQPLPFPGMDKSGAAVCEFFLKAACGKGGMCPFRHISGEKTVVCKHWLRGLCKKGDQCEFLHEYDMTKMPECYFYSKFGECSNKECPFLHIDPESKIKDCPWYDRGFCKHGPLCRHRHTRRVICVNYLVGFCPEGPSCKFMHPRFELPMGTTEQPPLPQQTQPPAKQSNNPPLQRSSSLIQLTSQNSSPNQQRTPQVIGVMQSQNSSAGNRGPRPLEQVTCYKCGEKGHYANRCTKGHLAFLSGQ", "summary_of_the_method": "as §1"}, "[9]": {"target": "T4, PARP12 (UniProt Q9H0J9)", "T4 sequence": "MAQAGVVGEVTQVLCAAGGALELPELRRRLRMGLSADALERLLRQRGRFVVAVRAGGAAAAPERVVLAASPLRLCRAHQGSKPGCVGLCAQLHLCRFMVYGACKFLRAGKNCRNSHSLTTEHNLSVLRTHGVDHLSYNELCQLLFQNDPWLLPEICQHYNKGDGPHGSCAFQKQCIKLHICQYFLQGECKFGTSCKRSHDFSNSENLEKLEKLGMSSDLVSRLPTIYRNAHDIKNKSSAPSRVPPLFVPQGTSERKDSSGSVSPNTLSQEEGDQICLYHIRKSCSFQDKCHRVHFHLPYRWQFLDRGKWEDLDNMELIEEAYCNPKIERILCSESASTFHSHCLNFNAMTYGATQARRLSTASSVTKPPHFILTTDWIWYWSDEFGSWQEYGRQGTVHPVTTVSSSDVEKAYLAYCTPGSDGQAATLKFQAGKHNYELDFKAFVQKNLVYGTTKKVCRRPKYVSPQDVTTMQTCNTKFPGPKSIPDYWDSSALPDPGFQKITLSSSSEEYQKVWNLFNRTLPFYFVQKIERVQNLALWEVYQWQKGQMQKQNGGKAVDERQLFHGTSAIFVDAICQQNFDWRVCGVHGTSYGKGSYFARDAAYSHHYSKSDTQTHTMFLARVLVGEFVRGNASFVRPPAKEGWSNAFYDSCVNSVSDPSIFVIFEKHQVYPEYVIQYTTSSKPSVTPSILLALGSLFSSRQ", "summary_of_the_method": "as §1"}},
  "data": [
    {"sequence": "UAUUUAU", "values": [
      {"measurement": "Kd", "setting": "[1]", "result": 257, "unit": "nM"},
      {"measurement": "Kd", "setting": "[2]", "result": 2230, "unit": "nM"}
    ]},
    {"sequence": "CUGUCCU", "values": [
      {"measurement": "Kd", "setting": "[3]", "result": 23.9, "unit": "nM"},
      {"measurement": "Kd", "setting": "[4]", "result": 101, "unit": "nM"},
      {"measurement": "Kd", "setting": "[5]", "result": 39.9, "unit": "nM"},
      {"measurement": "Kd", "setting": "[6]", "result": 37, "unit": "nM"},
      {"measurement": "Kd", "setting": "[7]", "result": 312, "unit": "nM"}
    ]},
    {"sequence": "AAUAAA", "values": [
      {"measurement": "Kd", "setting": "[8]", "result": 5.95, "unit": "nM"},
      {"measurement": "Kd", "setting": "[9]", "result": 5400, "unit": "nM"}
    ]}
  ]
}
